Assay results taken from US10744088B2, “Method for preparing ophthalmic preparation containing thymosin beta-4” (G-TREEBNT CO., LTD., priority 2015, dated 2020).

Key:
[1] = Purity analysis of ophthalmic preparations by HPLC; format: physicochemical; conditions: after preparation, HPLC UV 205 nm
Experimental: The purity changes of the ophthalmic preparations prepared in the above Examples and Comparative Examples were analyzed during the period from the initial time after preparation to 12 months later with a high performance liquid chromatography (HPLC), Agilent 1200 instrument under the conditions in Tables 1 and 2, and the results are shown in Table 3.

[2] = Impurity analysis (single maximum impurity, thymosin β4 sulfoxide) by HPLC and LC/MS; format: physicochemical; conditions: after preparation; impurity identified as thymosin β4 sulfoxide
Experimental: The amounts of impurities in the ophthalmic preparations prepared in the above Examples and Comparative Examples were analyzed as following, and the results are shown in Table 3.
Specifically, thymosin β4 sulfoxide was synthesized following the methods in the paper (Eur. J. Biochem. 223, 345-350 (1994), Nature Medicine 5(12), 1424 (1999)). Thymosin β4 sulfoxide is a substance modified from thymosin β4 by oxidation, which causes a change in its pharmacological activity compared to thymosin β4.
The molecular weight of the synthesized thymosin β4 sulfoxide was identified by mass analysis (LC/MS) using the MALDI-TOF MS instrument. The analyzed molecular weight was 4,978.5, which was consistent with the value in the document of 4,980±2.
The ophthalmic preparations prepared in Example 1 and Comparative Examples 1 and 2 and the synthesized thymosin β4 sulfoxide were analyzed by HPLC and LC/MS under the same conditions.

## thymosin β4 acetate [Thymosin β4 (raw material)]
[1]
  Purity (%): 99.3%
[2]
  Single maximum impurity (%): Not detected
